From US20210017279A1 (NANJING LEGEND BIOTECH, published 2021)

What was measured:
[1] = target: T1, human LAG-3 expressed on CHO-K1 cells (human, UniProt P18627 29-525); experiment: flow cytometry on CHO cells expressing LAG-3; Experiment 1
T1 construct: also called CHO-huLAG-3 cells; LAG-3 expressed on CHO cells
T1 sequence: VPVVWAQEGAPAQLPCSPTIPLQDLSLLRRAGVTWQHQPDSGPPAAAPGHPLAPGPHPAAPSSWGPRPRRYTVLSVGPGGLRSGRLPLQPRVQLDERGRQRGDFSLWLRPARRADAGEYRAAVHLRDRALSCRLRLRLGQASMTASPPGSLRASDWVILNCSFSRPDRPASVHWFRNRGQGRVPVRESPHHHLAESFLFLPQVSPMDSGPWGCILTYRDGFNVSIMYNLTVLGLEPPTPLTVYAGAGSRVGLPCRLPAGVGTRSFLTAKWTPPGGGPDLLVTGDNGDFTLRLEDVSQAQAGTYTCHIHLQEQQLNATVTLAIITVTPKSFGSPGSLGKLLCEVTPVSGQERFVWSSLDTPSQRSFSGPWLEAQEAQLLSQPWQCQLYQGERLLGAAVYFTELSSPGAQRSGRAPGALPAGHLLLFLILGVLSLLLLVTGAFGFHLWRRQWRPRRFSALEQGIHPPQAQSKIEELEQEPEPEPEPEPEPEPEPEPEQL

LAG-3-Fc = target: T2, LAG-3-Fc (human, UniProt P18627 29-450, biotinylated (in the blocking assays)); experiment: flow cytometry competition; blocks LAG-3-Fc binding to MHC II on A375 cells; Experiment 1
T2 construct: Recombinant LAG-3-Fc (Acrobiosystems / R&D Systems); also called biotinylated LAG-3-Fc protein; not shown: Fc part
T2 sequence: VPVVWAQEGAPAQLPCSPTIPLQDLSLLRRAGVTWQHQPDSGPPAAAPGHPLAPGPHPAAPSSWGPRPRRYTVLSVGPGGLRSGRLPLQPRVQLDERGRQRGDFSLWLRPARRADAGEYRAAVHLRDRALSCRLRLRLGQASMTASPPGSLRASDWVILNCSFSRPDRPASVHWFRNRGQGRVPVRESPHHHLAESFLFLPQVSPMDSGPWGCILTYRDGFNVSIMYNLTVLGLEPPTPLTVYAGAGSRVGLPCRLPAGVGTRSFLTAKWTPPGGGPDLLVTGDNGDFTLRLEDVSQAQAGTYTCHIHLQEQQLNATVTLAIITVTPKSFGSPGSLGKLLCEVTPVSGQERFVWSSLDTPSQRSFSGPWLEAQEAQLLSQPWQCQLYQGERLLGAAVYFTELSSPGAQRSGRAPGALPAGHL

[2] = target: PD-1 in the PD-1 cell based reporter assay; experiment: cell-based or functional assay
[3] = target: LAG-3 on Thaw-and-Use LAG-3 Effector cells; experiment: cell-based or functional assay
[4] = target: T3, PD-1 expressed on CHO cells (UniProt Q15116 25-288, limits assumed); experiment: flow cytometry competition; blocks PD-L1 binding to CHO-PD-1 cells; Experiment 1
T3 construct: whole, on cells; also called CHO-PD-1 cells
T3 sequence (Q15116 25-288 limits assumed): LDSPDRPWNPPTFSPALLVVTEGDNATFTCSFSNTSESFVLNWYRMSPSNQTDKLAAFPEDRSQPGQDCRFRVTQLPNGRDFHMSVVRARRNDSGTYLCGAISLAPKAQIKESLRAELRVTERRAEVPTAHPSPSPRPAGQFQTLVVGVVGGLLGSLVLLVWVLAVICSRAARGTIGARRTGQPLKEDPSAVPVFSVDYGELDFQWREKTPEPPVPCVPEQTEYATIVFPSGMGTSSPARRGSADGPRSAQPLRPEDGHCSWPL

Human LAG-3-His = target: T4, Human LAG-3-His (human, UniProt P18627 29-450); experiment: SPR (Biacore T200), as in Example 3; Experiment 1
T4 construct: Bought recombinant protein; also called Human LAG-3 protein (Acrobiosystem, 772-6BGF2-D5); not shown: His tag
T4 sequence: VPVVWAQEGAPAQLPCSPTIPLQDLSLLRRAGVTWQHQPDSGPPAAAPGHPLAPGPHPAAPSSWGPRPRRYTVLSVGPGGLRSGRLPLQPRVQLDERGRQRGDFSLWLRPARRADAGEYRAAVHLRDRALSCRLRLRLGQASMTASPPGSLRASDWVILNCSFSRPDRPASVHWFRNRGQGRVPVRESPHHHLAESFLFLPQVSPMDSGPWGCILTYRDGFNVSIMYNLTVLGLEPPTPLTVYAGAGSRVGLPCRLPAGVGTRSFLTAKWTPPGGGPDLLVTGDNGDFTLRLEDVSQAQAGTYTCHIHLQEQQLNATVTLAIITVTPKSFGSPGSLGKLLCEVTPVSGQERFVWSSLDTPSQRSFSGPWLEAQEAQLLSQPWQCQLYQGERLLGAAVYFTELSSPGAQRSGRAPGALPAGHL

Human PD-1 = Human PD-1 (human, UniProt Q15116 25-167, limits assumed); experiment: SPR (Biacore T200), as in Example 3; Experiment 1
Sequence of Human PD-1 (Q15116 25-167 limits assumed): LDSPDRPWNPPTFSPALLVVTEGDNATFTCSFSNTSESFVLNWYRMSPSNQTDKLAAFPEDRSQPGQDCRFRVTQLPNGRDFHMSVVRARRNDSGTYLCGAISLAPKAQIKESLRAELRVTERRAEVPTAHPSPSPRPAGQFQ

[5] = target: T3, PD-1 expressed on CHO cells; experiment: flow cytometry on CHO cells expressing PD-1; Experiment 1

EC50 [1]: 0.883 nM
EC50 (LAG-3-Fc): 1.8 nM
PD-1 cell based reporter assay EC50 [2]: 7.62 nM
LAG-3 blockade reporter assay EC50 [3]: 4.6 nM
EC50 [4]: 6.66 nM
Kd (Human LAG-3-His): 0.44 nM
Kd (Human PD-1): 1.8 nM
EC50 [5]: 7.91 nM
B1: BLP-1 (bispecific antibody, human IgG4 S228P, kappa)
heavy: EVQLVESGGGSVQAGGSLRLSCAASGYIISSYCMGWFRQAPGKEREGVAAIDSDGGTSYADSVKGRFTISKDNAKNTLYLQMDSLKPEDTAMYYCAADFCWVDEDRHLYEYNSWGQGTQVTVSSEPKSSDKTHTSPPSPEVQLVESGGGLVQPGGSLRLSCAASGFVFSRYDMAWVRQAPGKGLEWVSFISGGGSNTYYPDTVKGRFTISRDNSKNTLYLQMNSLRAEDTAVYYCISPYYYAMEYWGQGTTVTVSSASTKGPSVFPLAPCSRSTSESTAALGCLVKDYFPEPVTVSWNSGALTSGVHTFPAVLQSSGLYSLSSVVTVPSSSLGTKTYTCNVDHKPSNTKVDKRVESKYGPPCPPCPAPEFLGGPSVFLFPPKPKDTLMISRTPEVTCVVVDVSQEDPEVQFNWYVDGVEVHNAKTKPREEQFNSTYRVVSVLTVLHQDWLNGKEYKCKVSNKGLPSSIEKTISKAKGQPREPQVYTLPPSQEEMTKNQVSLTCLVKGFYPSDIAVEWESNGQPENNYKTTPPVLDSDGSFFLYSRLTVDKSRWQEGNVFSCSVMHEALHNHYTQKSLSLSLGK
light: DIQMTQSPSSVSASVGDRVTITCKASQDVDTAVAWYQQKPGKAPKLLIYWASTRHTGVPSRFSGSGSGTDFTLTISSLQPEDFATYYCQQYSTFPWTFGGGTKVEIKRTVAAPSVFIFPPSDEQLKSGTASVVCLLNNFYPREAKVQWKVDNALQSGNSQESVTEQDSKDSTYSLSSTLTLSKADYEKHKVYACEVTHQGLSSPVTKSFNRGEC
notes: also called PD-1 x LAG-3 proof-of-concept BABP
